Data from publication PMC6792133.

How the values were obtained:
[1] = target: NbPI4KII-mGFP (Nicotiana benthamiana); assay: FRET or BRET; FRET in agroinfiltrated N. benthamiana leaf epidermal cells, 3 dpi; mGFP donor, DsRed acceptor; Olympus FluoView FV1000
[2] = target: NbPI4KII-mGFP (Nicotiana benthamiana)
[3] = target: Capsicum annuum phosphatidylinositol 4-kinase type II (CaPI4KII), yeast two-hybrid fusion (Capsicum annuum)
[4] = target: NbPI4KII-mGFP (Nicotiana benthamiana); remark: listed apart in the source

Row | Substance | FRET efficiency [1] [%] | percentage of cells with NbPI4KII-mGFP exclusively inside the nucleus when co-expressed with Rep1-180-DsRed (N = 16) [2] [%] | percentage of cells with CaPI4KII-mGFP restricted to the nucleus when co-expressed with Rep1-180-DsRed [3] [%] | percentage of cells in which NbPI4KII-mGFP was redirected into the nucleus when co-expressed with Rep181-361-DsRed (N = 17) [2] [%] | percentage of cells with CaPI4KII-mGFP restricted to the nucleus when co-expressed with Rep181-361-DsRed [3] [%] | percentage of cells with NbPI4KII-mGFP only inside the nucleus when co-expressed with Rep-DsRed (N. benthamiana epidermis, N = 19) [4] [%]
1 | ChiLCV Rep1-120-DsRed (domain or fragment) | 72 |  |  |  |  | 
2 | ChiLCV Rep1-180-DsRed (domain or fragment) | 43 | 87 | 61 |  |  | 
3 | ChiLCV Rep181-361-DsRed (domain or fragment) | 76 |  |  | 78 | 41 | 
4 | ChiLCV Rep-DsRed (natural protein) | 47 |  |  |  |  | 63
